B1: Hairpin Ribozyme (parent)
chain: GUCCUCUUUCACGUGCGCGUGAAAGAGAGAAGUGAACCAGAGAAACACACGUUGUGGUAUAUUACCUGGUA

Variants of: B1
Test: self-cleavage, relative activity (ratio to wild type); higher = more cleavage; co-transcriptional
Variant GUCCACUUUCACGUGCGCGUGAAAGAGAGAAGUGAACCAGAGAAACAGACGUUGUGGUAUAUUACCUGGUA has a self-cleavage of 0.0819.
For GUCCACUUUCACGUUCGCGUGAAAGAGAGAAGUGAACCAGAGAAACACACGUUGUGGUAUAUUACCUGGUA, the self-cleavage was 0.495.
With GUCCACUUUCACGUACGCGUGAAAGAGAGAAGUGAACCAGAGAAACACACGUUGUGGUAUAUUACCUGGUA the self-cleavage was 0.388.
For GUCCACUUUCACGUGCGCGUGAAAGAGAGAAGUGAACCAGUGAAACACACGUUGUGGUAUAUUACCUGGUA, the self-cleavage was 0.818.
Variant GUCCACUUUUACGUGCGCGUGAAAGAGAGAAGUGAACCAGAGAAACACACGUUGUGGUAUAUUACCUGGUA has a self-cleavage of 0.333.
In the case of GUCCACUUUCACGUGCGCGUGAAAGAGAGAAGUGAAGCAGAGAAACACACGUUGUGGUAUAUUACCUGGUA, the self-cleavage is reported as 0.18.
In the case of GUCCACUUUCACGUGCGCGUGAAAGAGAGAAGUGAACAAGAGAAACACACGUUGUGGUAUAUUACCUGGUA, the self-cleavage is reported as 0.142.
For GUCCACUUUCACGUGCGCGUGAAAGAGAGAAGUGAACCAGAGAAACACACGUUGUGGUUUAUUACCUGGUA, the self-cleavage was 0.153.
GUCCAAUUUCACGUGCGCGUGAAAGAGAGAAGUGAACCAGAGAAACACACGUUGUGGUAUAUUACCUGGUA gave a self-cleavage of 0.337.
For GUCCACUUUCACGUGCGCGUGAAAGAGAGAAGUGAACCAGAGAAACCCACGUUGUGGUAUAUUACCUGGUA, the self-cleavage was 0.187.
GUCCACUUUCACGUGCGCGUGAAAGAGAGAAGUGAACCAGAGAAACUCACGUUGUGGUAUAUUACCUGGUA gave a self-cleavage of 0.0694.
For GUCCACUUUCACGUGCGCGUGAAAGAGAGAAGUGAACCAGAGAAACGCACGUUGUGGUAUAUUACCUGGUA, the self-cleavage was 0.102.
For GUCCACUUUCACGUGCGCGUGAAAGAGAGAAGUGAACCAGAGAAACACACGUUGUGGUAUAUUACCUGGUC, the self-cleavage was 0.884.
With GUCCACUUUCACGUGCGCGUGAAAGAGAGAAGUGAACCAGAGAAACACACGUUGUGGUAUAUUACUUGGUA the self-cleavage was 0.153.
For GUCCACUUUCACGUGCGCGUGAAAGAGAGAAGUGAACCAGAGAAACACACGUUGUGGUAUAUUACGUGGUA, the self-cleavage was 0.176.
Variant GUCCACUUUCACGUGCGCGUGAAAGAGAGAAGUGAACCAGAGAAACACACGUUGUGGUAUCUUACCUGGUA has a self-cleavage of 0.088.
GUCCACUUUCACCUGCGCGUGAAAGAGAGAAGUGAACCAGAGAAACACACGUUGUGGUAUAUUACCUGGUA showed a self-cleavage of 0.19.
Work on GUCCACUUUCACUUGCGCGUGAAAGAGAGAAGUGAACCAGAGAAACACACGUUGUGGUAUAUUACCUGGUA yielded a self-cleavage of 0.302.
In the case of GUCCACUUUCACGUGCGCGUGAAAGAGAGAAGUGAACCUGAGAAACACACGUUGUGGUAUAUUACCUGGUA, the self-cleavage is reported as 0.0927.
With GUCCACUUUCACGUGCGCGUGAAAGAGAGAAGUGAACCGGAGAAACACACGUUGUGGUAUAUUACCUGGUA the self-cleavage was 0.101.
Work on GUCCACUUUCAGGUGCGCGUGAAAGAGAGAAGUGAACCAGAGAAACACACGUUGUGGUAUAUUACCUGGUA yielded a self-cleavage of 0.266.
GUCCACUUUCAAGUGCGCGUGAAAGAGAGAAGUGAACCAGAGAAACACACGUUGUGGUAUAUUACCUGGUA gave a self-cleavage of 0.273.
GUCCACUUUCACGUGCGCGUGAAAGAGAGAAGUGAACCAGAGAAACACAUGUUGUGGUAUAUUACCUGGUA showed a self-cleavage of 0.291.
With GUCCACUUUCACGUGCGCGUGAAAGAGAGAAGUGAACCAGAGAAAUACACGUUGUGGUAUAUUACCUGGUA the self-cleavage was 0.0644.
GUCCACUUUCACGUGCGCGUGAAAGAGAGAAGUGAACCAGAGAAAAACACGUUGUGGUAUAUUACCUGGUA showed a self-cleavage of 0.16.
In the case of GUCCACUUUCACGUGCGCGUGAAAGAGAGAAGUGAACCAGAGAAGCACACGUUGUGGUAUAUUACCUGGUA, the self-cleavage is reported as 0.0727.
With GUCCACUUUCACGUGCGCGUGAAAGAGAGAAGUGAACCAGAGAAUCACACGUUGUGGUAUAUUACCUGGUA the self-cleavage was 0.141.
Variant GUCCACUUUCACGUGCGCGUGAAAGAGAGAAGUGAACCAGAGAAACACACGUUGUGGUAUAUUCCCUGGUA has a self-cleavage of 0.151.
GUCCACUUUCACGUGCGCGUGAAAGAGAGAAGUGAACCAGAGAAACACACGUUGUGGUAUAUUUCCUGGUA gave a self-cleavage of 0.133.
For GUCCACUUUCACGUGCACGUGAAAGAGAGAAGUGAACCAGAGAAACACACGUUGUGGUAUAUUACCUGGUA, the self-cleavage was 0.435.
GUCCACUUUCACGUGCCCGUGAAAGAGAGAAGUGAACCAGAGAAACACACGUUGUGGUAUAUUACCUGGUA showed a self-cleavage of 0.204.
In the case of GUCCACUUUCACGUGAGCGUGAAAGAGAGAAGUGAACCAGAGAAACACACGUUGUGGUAUAUUACCUGGUA, the self-cleavage is reported as 0.281.
Variant GUCCACUUUCACGUGUGCGUGAAAGAGAGAAGUGAACCAGAGAAACACACGUUGUGGUAUAUUACCUGGUA has a self-cleavage of 0.475.
GUCCACUUUCACGUGGGCGUGAAAGAGAGAAGUGAACCAGAGAAACACACGUUGUGGUAUAUUACCUGGUA gave a self-cleavage of 0.231.
GUCCACUUUCACGUGCGCGUGAAAGAGAGAAGUGAACCAGAGAAACACUCGUUGUGGUAUAUUACCUGGUA showed a self-cleavage of 0.0811.
GUCCACUUUCACGUGCGCGUGAAAGAGAGAAGUGAACCAGAGAAACACCCGUUGUGGUAUAUUACCUGGUA gave a self-cleavage of 0.124.
GUCCACUUUCACGUGCGCGUGAAAGAGAGAAGUGAACCAGAGGAACACACGUUGUGGUAUAUUACCUGGUA gave a self-cleavage of 0.0784.
For GUCCACUUUCACGUGCGCGUGAAAGAGAGAAGUGAACCAGAGCAACACACGUUGUGGUAUAUUACCUGGUA, the self-cleavage was 0.113.

— the RNAGym collection of RNA variant scans (doi:10.7554/elife.80360)
